For the test, the target named is T1, His-DUB3 (deubiquitinating enzyme 3) (UniProt Q6R6M4 1-530).
T1 construct: deubiquitinating enzyme 3 (DUB3); also called purified recombinant His-DUB3; source: purified recombinant (cloned into PET28A)
T1 sequence (looked up): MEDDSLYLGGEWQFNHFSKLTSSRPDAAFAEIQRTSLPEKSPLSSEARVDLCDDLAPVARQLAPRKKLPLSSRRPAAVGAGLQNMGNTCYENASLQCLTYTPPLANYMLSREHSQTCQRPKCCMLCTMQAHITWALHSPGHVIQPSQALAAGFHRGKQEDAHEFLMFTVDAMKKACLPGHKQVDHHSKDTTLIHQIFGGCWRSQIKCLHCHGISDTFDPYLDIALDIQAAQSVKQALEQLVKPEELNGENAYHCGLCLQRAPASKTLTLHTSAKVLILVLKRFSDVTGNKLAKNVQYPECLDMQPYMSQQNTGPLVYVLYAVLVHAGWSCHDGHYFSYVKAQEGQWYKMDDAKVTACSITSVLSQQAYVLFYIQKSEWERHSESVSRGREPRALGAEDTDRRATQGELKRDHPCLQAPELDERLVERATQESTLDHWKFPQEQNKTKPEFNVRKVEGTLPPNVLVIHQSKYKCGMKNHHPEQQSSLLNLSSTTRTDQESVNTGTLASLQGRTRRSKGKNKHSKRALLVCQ
Briefly: pull-down; purified recombinant GST or GST fusion protein incubated in vitro (cell-free) with purified recombinant His-tagged protein; blot and Coomassie blue staining. Conditions: both partners purified.

The record followed here is article PMC11832431 (MedComm, 2025).

B1: GST-CDK4 (cyclin-dependent kinase 4) (enzyme, UniProt P11802 1-303, looked up)
chain: MATSRYEPVAEIGVGAYGTVYKARDPHSGHFVALKSVRVPNGGGGGGGLPISTVREVALLRRLEAFEHPNVVRLMDVCATSRTDREIKVTLVFEHVDQDLRTYLDKAPPPGLPAETIKDLMRQFLRGLDFLHANCIVHRDLKPENILVTSGGTVKLADFGLARIYSYQMALTPVVVTLWYRAPEVLLQSTYATPVDMWSVGCIFAEMFRRKPLFCGNSEADQLGKIFDLIGLPPEDDWPRDVSLPRGAFPPRGPRPVQSVVPEMEESGAQLLLEMLTFNPHKRISAFRALQHSYLHKDEGNPE
notes: cyclin-dependent kinase 4 (CDK4); CDK4 and CDK6 were cloned as separate genes, so they are written as two molecules; No cyclin is mentioned; also called GST-CDK4/6; source: purified recombinant (cloned into pGEX4T-1)
In the case of B1, the binding result is given as “binds”.
